The values that follow come from US7323171.

In the experiment the target is CD2 on human T cells (human) (UniProt P06729). The experiment can be described thus: cell-based or functional assay.
Chain of UniProt P06729 (P06729 25-351 limits assumed): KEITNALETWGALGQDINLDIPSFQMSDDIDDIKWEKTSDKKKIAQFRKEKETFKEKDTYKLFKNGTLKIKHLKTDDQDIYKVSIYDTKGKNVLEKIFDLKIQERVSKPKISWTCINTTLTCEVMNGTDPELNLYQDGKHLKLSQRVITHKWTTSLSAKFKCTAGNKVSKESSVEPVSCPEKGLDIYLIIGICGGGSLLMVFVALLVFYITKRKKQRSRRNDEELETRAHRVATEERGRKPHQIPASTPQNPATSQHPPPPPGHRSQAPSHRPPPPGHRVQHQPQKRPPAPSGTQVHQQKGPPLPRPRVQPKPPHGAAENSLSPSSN

With anti-CD2 monoclonal antibody TS2/18, the inhibition of allogeneic T cell activation by normal skin cells ([3H]TdR incorporation), antibody at 50 µg/ml was determined as 40% and the inhibition of autologous T cell proliferation ([3H]TdR incorporation) in response to lesional psoriatic epidermis, antibody at 50 µg/ml is 60%.
